Assay results as given in patent US8252554B2, “Halohydrin dehalogenases and related polynucleotides” (Codexis, Inc., priority 2003, dated 2012).

Experiment: Example 7 manufacture of ethyl (R)-4-cyano-3-hydroxybutyrate with HHDH cell lysate
Assay type: biochemical
Details: 40° C., pH 7, 17 hours
Experimental: To a 3-necked jacketed 3 L flask equipped with a mechanical stirrer and connected to an automatic titrater by a pH electrode and a feeding tube for addition of base, was charged H2O (1200 mL), NaCN (37.25 g) and NaH2PO4 (125 g) to bring the solution to pH 7. The water circulator was set to 40° C. After 10 minutes, halohydrin dehalogenase of SEQ ID NO: 32 as cell lysate (250 mL) was added. The reaction mixture was allowed to stir for 5 minutes. Using an addition funnel, ethyl (S)-4-chloro-3-hydroxybutyrate (45 g) was slowly added over 1 hour. The pH was maintained at 7 by the automatic titrater by the addition of 10 M NaOH (27 mL) over 17 hours. […] Celite™ (16 g) was added to the flask, which was then connected to a diaphragm pump, whose exhaust is bubbled into 5M NaOH (200 mL), to remove HCN. The mixture was heated to 60° C. under 100 mm Hg pressure. After 1 hour, a submerged air bubbler was added to the solution to aid the removal of the HCN. After 3 hours, an HCN detector indicated less than 5 ppm HCN in the off-gas. The mixture was allowed to cool to room temperature, then filtered through a Celite™ pad. […] Enantiomeric composition can be readily characterized by using the gas chromatography method described in Example 6, above, and using methods that are known in the art.

B1: SEQ ID NO: 32: native halohydrin dehalogenase from Agrobacterium radiobacter AD1 (hheC), expressed from SEQ ID NO. 31 (protein)
chain: MSTAIVTNVKHFGGMGSALRLSEAGHTVACHDESFKQKDELEAFAETYPQLKPMSEQEPAELIEAVTSAYGQVDVLVSNDIFAPEFQPIDKYAVEDYRGAVEALQIRPFALVNAVASQMKKRKSGHIIFITSATPFGPWKELSTYTSARAGACTLANALSKELGEYNIPVFAIGPNYLHSEDSPYFYPTEPWKTNPEHVAHVKKVTALQRLGTQKELGELVAFLASGSCDYLTGQVFWLAGGFPMIERWPGMPE
- conversion to product by gas chromatography: complete conversion to product
